Experimental data as given in patent publication US20090004749, “METHOD AND KIT FOR DETERMINING THE AMOUNT OF DNA BINDING PROTEIN” (SYSMEX CORPORATION, published 2009).

What was measured:
[1] = biological target: T1, NF-κB (recombinant, p50) (UniProt P19838 P19838:1-433); test: competition; FCS; no competition at 50 nM; diffusion time same as without competitor; details: tags: Promega; detected with anti-p50 antibody; chain copies: 2; hairpin, stem-loop with AAAA loop
Procedure: (§1) As a pure-line sample, 0.6 μg/μl solution of recombinant NF-κB was used. […] As the control, a pure-line sample-free sample using the fluorescent-labeled probe Pfw only as a nucleic acid probe was used. In the Reference Example, the sample to which an anti-p50 antibody had further been added was used. The reaction time was 10 minutes for each sample.

[2] = biological target: T1, NF-κB (recombinant, p50); test: fluorescence correlation spectroscopy; 1 nM probe, room temperature; 10 min; details: tags: Promega; detected with anti-p50 antibody; chain copies: 2; label: 5'-TAMRA; hairpin, stem-loop with AAAA loop
Procedure: as §1

[3] = biological target: T1, NF-κB (recombinant, p50); test: competition; FCS; unlabeled competitor against 1 nM Pfw; details: tags: Promega; detected with anti-p50 antibody; chain copies: 2; hairpin, stem-loop with AAAA loop
Procedure: as §1

T1 sequence (P19838 1-433, one chain of several): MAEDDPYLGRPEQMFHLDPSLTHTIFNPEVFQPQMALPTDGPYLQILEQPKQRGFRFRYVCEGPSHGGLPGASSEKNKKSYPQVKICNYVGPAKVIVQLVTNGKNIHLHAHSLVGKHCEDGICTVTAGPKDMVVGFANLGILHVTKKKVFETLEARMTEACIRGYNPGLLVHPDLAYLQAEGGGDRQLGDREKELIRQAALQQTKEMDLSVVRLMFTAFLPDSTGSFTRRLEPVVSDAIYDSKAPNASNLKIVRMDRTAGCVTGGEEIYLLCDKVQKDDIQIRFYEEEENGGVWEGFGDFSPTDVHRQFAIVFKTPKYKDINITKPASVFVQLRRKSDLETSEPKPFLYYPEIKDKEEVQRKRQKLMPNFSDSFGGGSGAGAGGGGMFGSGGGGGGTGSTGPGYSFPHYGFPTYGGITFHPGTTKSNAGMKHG

B1: Pn (structured_DNA)
DNA: CAGGCGCGTTTTGACCATCTTAAAAAAGATGGTCAAAACGCGCCTG
[1]
  binding result: no binding

B2: Pfw (structured_DNA)
DNA: AGTTGAGGGGACTTTCCCAGGCAAAAGCCTGGGAAAGTCCCCTCAACT
[2]
  binding result: binds

B3: Pw (structured_DNA)
DNA: AGTTGAGGGGACTTTCCCAGGCAAAAGCCTGGGAAAGTCCCCTCAACT
[3]
  binding result: binds
